The target of one test is T1, Human MUC16-His (human).
T1 construct: The entry includes the C-terminal 6xHis tag; also called membrane-proximal end of the extracellular region of the human MUC16 protein; Human MUC16 protein
T1 chain: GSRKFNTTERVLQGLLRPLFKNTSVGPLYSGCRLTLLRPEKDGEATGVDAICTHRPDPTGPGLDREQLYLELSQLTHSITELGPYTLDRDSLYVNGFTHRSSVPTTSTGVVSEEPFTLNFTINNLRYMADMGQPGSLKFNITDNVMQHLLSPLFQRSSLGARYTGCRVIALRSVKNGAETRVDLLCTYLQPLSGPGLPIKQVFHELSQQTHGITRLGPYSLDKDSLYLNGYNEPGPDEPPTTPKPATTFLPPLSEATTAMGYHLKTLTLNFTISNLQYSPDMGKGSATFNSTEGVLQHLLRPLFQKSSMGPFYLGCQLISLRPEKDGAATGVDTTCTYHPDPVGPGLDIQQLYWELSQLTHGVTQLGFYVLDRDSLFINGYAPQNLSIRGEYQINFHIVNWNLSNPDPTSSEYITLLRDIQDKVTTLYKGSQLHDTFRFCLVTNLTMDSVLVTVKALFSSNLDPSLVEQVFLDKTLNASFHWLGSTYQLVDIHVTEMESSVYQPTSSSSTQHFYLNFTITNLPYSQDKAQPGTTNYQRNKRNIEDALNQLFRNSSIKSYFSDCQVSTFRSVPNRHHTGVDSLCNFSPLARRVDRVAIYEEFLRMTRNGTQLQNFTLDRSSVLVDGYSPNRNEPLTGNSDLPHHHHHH
Put plainly: BLI (ForteBio Octet RED96), antibody on AHC sensor, 50 nM antigen, 1:1 model. From the text:
(§1) The binding affinity of the anti-MUC-16 antibodies for the membrane-proximal end of the extracellular region of the human MUC16 protein (human MUC16-His, Table 26) and the membrane-proximal end of the extracellular region of the rhesus monkey MUC16 protein (rhesus monkey MUC16-His, Table 26) was detected by ForteBio Octet RED96, respectively. According to the manufacturer's instructions, an AHC sensor (ForteBio, Cat #18-5060) was placed in a running buffer (lx PBS, Hyclone, Cat #SH30256.01, containing 0.02% Tween 20, pH 7.0) and pre-equilibrated at room temperature for 10 min. In a 96-well plate, the kinetic assay was performed according to the following steps: a) equilibrating the baseline for 100 s with the running buffer; b) diluting the anti-MUC-16 antibodies with the running buffer to 5 μg/mL, immobilizing for 200 s, and stopping; c) equilibrating the baseline for 300 s with the running buffer; and d) diluting the human or rhesus monkey MUC16 protein with the running buffer to 50 nM, binding for 200 s, and dissociating for 600 s. The experimental data were fitted and calculated using a Fortebio Data Analysis software 1:1 binding model.

For another test, the target named is T2, Rhesus monkey MUC16-His (rhesus monkey).
T2 construct: The entry includes the C-terminal 6xHis tag; also called membrane-proximal end of the extracellular region of the rhesus monkey MUC16 protein
T2 chain: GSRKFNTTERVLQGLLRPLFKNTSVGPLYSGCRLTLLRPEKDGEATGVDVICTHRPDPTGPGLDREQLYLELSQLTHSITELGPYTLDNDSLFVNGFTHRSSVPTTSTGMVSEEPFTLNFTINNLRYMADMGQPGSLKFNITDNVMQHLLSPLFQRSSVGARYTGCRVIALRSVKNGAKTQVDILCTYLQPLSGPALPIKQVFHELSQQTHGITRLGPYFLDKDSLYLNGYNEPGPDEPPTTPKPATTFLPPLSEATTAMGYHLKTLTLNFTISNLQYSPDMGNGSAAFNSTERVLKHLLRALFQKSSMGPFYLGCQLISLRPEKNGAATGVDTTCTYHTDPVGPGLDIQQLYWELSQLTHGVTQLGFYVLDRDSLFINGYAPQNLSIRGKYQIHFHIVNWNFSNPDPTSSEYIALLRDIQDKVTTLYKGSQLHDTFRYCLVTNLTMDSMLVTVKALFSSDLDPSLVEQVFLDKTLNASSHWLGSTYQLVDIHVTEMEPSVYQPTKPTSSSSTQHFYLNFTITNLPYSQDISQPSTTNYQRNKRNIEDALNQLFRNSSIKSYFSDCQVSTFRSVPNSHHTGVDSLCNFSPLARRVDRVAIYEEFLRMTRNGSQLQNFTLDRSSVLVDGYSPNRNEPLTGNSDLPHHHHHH
The test is described as above.
Text: as §1

For test [1], the target named is T3, human MUC16 protein (ECT_TM huMuc16) on 293T cells (human).
T3 chain: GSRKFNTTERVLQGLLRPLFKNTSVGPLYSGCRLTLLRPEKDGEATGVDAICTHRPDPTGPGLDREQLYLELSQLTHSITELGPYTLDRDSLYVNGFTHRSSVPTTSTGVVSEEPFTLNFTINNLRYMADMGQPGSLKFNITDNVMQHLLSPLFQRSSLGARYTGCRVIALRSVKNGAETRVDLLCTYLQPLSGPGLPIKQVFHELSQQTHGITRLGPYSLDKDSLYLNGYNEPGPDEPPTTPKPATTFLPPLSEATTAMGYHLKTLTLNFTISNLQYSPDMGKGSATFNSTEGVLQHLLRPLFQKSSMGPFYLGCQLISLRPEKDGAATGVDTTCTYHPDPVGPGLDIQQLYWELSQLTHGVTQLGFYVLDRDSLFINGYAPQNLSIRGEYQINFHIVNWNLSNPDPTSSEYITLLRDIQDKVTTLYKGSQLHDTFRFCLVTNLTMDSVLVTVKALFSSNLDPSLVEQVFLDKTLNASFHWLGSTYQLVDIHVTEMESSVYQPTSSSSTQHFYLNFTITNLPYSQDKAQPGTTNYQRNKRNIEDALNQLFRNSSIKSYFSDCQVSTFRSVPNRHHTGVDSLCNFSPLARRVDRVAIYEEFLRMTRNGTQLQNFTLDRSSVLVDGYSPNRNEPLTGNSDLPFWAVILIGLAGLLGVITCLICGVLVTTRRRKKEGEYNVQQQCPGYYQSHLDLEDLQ
The test is described as follows: flow cytometry, 293T/hMUC16 cells, PE anti-human IgG Fc secondary, MFI; EC50 table under the plot, unit from the axis Conc.(nM). On the procedure: (§2) The serially diluted anti-human MUC16 antibodies (at an initial concentration of 200 nM, 4-fold dilution, 8 points in total) obtained in the present application were added to the cells, and the cells were incubated at 4° C. for 30 min. The cells were washed twice with PBS, and then fluorescent secondary antibody R-PE-conjugated AffiniPure Goat Anti-Human IgG, Fcγ Fragment Specific (Jackson ImmunoResearch, Cat #109-116-098) was added. The cells were incubated at 4° C. for 30 min. The cells were washed twice with PBS and then resuspended, and finally, fluorescence signals were detected using a BD Accuri C5 (BD Bioscience) flow cytometer.
(In general: In flow cytometry, cells or beads pass a laser one at a time.)

For test [2], the target named is T4, rhesus monkey MUC16 protein (ECT_TM RhMuc16) on 293T cells (rhesus monkey).
T4 chain: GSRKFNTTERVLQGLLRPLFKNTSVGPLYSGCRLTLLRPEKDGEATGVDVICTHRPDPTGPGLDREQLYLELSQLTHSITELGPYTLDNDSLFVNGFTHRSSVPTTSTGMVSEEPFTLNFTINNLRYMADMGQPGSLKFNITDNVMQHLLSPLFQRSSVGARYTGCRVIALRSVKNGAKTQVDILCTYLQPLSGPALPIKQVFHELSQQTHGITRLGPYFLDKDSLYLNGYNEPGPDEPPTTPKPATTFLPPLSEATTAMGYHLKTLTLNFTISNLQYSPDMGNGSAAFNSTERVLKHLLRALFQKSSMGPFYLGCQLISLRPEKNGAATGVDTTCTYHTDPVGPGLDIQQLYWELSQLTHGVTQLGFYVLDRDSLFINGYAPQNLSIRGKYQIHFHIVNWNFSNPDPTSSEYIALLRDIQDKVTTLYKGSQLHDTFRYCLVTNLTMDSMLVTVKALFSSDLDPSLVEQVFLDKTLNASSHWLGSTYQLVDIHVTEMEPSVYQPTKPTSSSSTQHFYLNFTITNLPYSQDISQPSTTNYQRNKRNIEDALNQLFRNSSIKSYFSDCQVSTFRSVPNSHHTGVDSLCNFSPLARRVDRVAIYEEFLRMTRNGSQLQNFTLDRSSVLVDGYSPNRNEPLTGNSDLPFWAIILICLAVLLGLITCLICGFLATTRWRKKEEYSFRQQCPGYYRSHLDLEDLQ
The test is described as follows: flow cytometry, 293T/rhesus MUC16 cells, PE anti-human IgG Fc secondary, MFI; EC50 table under the plot, unit from the axis Conc.(nM). How it is done:
as §2

Changes are numbered by the printed parent chain. In names and notes the source's numbering stands.

B1: murine anti-MUC16 antibody 776.1 (antibody, human IgG1, kappa, L234A L235A, V domains shown)
VH: EVQLQQSGPELVKPGASVKISCKASGYTFTDYNIHWVKQSHGKILEWIGYIYPYNGVSDYNQNFKSKATLIVDNSSNTAYMELRSLTSEDSAVYYCARWDFGSGYYFDYWGQGTTLTVSS
VL: QIVLSQSPAILFASPGETVTMTCRASSSVIYMCWNQQKPGSSPKPWIYGTSTLASGVPTRFSGSGSGTSYSLTISRVEAEDAATYYCQQWSSNPFTFGSGTKLEIKR
notes: Murine variable regions on human IgG1 (L234A, L235A, D265A, P329A) and kappa constant regions
Broadly, the Kd is the equilibrium constant for the complex coming apart. Broadly, the koff is the first-order rate constant of dissociation. A word on the kon: it is a measure of how fast the partners come together. For orientation: EC50 means the concentration giving half of the maximal effect. In the test with Human MUC16-His, B1 yielded a Kd of 0.359 nM, a koff of 0.000168 s⁻¹ and a kon of 468000 M⁻¹ s⁻¹. In addition, in the test with Rhesus monkey MUC16-His, the affinity, expressed as Kd, was 1.82 nM; the koff was 0.00156 s⁻¹; the kon amounted to 856000 M⁻¹ s⁻¹. For the same molecule, the EC50 in test [1] came out at 2.58 nM. This molecule also had an EC50 in test [2] of 4.87 nM.

B2: anti-MUC16 antibody 776.1(C33A) (antibody, human IgG1, kappa, L234A L235A, V domains shown)
VH: B1 VH
VL: B1 VL with C33A
For B2, in the test with Human MUC16-His, binding was put at a Kd of 1.36 nM, the koff came to 0.000348 s⁻¹ and the kon was 255000 M⁻¹ s⁻¹. In the test with Rhesus monkey MUC16-His, this molecule displayed a Kd of 1.2 nM, a koff of 0.000945 s⁻¹ and a kon of 791000 M⁻¹ s⁻¹. Besides, the response in test [1] was half-maximal at 8.72 nM (EC50). Besides, the response in test [2] was half-maximal at 11.1 nM (EC50).

The values above are taken from patent US20250092135A1 (NANJING LEADS BIOLABS, published 2025).
